# Square brackets hold non-standard residues; d marks the D form. Primed or numbered codes have the meaning given here. * marks the point of attachment. m‑dPEG(4)″ = m-dPEG(4) acid, coupled to Acp (R^111 group of Formula (4)), COCCOCCOCCOCCC(=O)*; m‑dPEG(4) = m-dPEG(4) acid, coupled to Acp, with Acp forms R^111 of Formula (4); 2Nal = N[C@@H](Cc1ccc2ccccc2c1)C(=O)O; Cha = N[C@@H](CC1CCCCC1)C(=O)O; Chg = N[C@H](C(=O)O)C1CCCCC1; Nva = CCC[C@H](N)C(=O)O; Ahx = NCCCCCC(=O)O
# T1: myostatin (UniProt O14793 267-375, limits assumed)
# T1 sequence (looked up): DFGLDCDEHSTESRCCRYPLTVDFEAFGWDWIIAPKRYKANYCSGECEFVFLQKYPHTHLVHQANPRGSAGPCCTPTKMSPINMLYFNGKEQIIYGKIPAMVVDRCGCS
# B1: PDM-38 (peptide)
# peptide: {m‑dPEG(4)″-Ahx}-W[2Nal]IEWIKIQIISKLRL-NH2
# SMILES: CC[C@H](C)[C@H](NC(=O)[C@H](Cc1ccc2ccccc2c1)NC(=O)[C@H](Cc1c[nH]c2ccccc12)NC(=O)CCCCCNC(=O)CCOCCOCCOCCOC)C(=O)N[C@@H](CCC(=O)O)C(=O)N[C@@H](Cc1c[nH]c2ccccc12)C(=O)N[C@H](C(=O)N[C@@H](CCCCN)C(=O)N[C@H](C(=O)N[C@@H](CCC(N)=O)C(=O)N[C@H](C(=O)N[C@H](C(=O)N[C@@H](CO)C(=O)N[C@@H](CCCCN)C(=O)N[C@@H](CC(C)C)C(=O)N[C@@H](CCCNC(=N)N)C(=O)N[C@@H](CC(C)C)C(N)=O)[C@@H](C)CC)[C@@H](C)CC)[C@@H](C)CC)[C@@H](C)CC
# B2: PDM-39 (peptide)
# peptide: {m‑dPEG(4)″-Ahx}-W[Cha]IEWIKIQIISKLRL-NH2
# SMILES: CC[C@H](C)[C@H](NC(=O)[C@H](CC1CCCCC1)NC(=O)[C@H](Cc1c[nH]c2ccccc12)NC(=O)CCCCCNC(=O)CCOCCOCCOCCOC)C(=O)N[C@@H](CCC(=O)O)C(=O)N[C@@H](Cc1c[nH]c2ccccc12)C(=O)N[C@H](C(=O)N[C@@H](CCCCN)C(=O)N[C@H](C(=O)N[C@@H](CCC(N)=O)C(=O)N[C@H](C(=O)N[C@H](C(=O)N[C@@H](CO)C(=O)N[C@@H](CCCCN)C(=O)N[C@@H](CC(C)C)C(=O)N[C@@H](CCCNC(=N)N)C(=O)N[C@@H](CC(C)C)C(N)=O)[C@@H](C)CC)[C@@H](C)CC)[C@@H](C)CC)[C@@H](C)CC
# B3: PDM-44 (peptide)
# peptide: {m‑dPEG(4)″-Ahx}-WYIE[2Nal]IKIQIISKLRL-NH2
# SMILES: CC[C@H](C)[C@H](NC(=O)[C@H](Cc1ccc(O)cc1)NC(=O)[C@H](Cc1c[nH]c2ccccc12)NC(=O)CCCCCNC(=O)CCOCCOCCOCCOC)C(=O)N[C@@H](CCC(=O)O)C(=O)N[C@@H](Cc1ccc2ccccc2c1)C(=O)N[C@H](C(=O)N[C@@H](CCCCN)C(=O)N[C@H](C(=O)N[C@@H](CCC(N)=O)C(=O)N[C@H](C(=O)N[C@H](C(=O)N[C@@H](CO)C(=O)N[C@@H](CCCCN)C(=O)N[C@@H](CC(C)C)C(=O)N[C@@H](CCCNC(=N)N)C(=O)N[C@@H](CC(C)C)C(N)=O)[C@@H](C)CC)[C@@H](C)CC)[C@@H](C)CC)[C@@H](C)CC
# B4: PDM-52 (peptide)
# peptide: {m‑dPEG(4)″-Ahx}-WYIEWIKIQI[Nva]SKLRL-NH2
# SMILES: CCC[C@H](NC(=O)[C@@H](NC(=O)[C@H](CCC(N)=O)NC(=O)[C@@H](NC(=O)[C@H](CCCCN)NC(=O)[C@@H](NC(=O)[C@H](Cc1c[nH]c2ccccc12)NC(=O)[C@H](CCC(=O)O)NC(=O)[C@@H](NC(=O)[C@H](Cc1ccc(O)cc1)NC(=O)[C@H](Cc1c[nH]c2ccccc12)NC(=O)CCCCCNC(=O)CCOCCOCCOCCOC)[C@@H](C)CC)[C@@H](C)CC)[C@@H](C)CC)[C@@H](C)CC)C(=O)N[C@@H](CO)C(=O)N[C@@H](CCCCN)C(=O)N[C@@H](CC(C)C)C(=O)N[C@@H](CCCNC(=N)N)C(=O)N[C@@H](CC(C)C)C(N)=O
# B5: PDM-53 (peptide)
# peptide: {m‑dPEG(4)″-Ahx}-WYIEWIKIQI[Chg]SKLRL-NH2
# SMILES: CC[C@H](C)[C@H](NC(=O)[C@H](Cc1ccc(O)cc1)NC(=O)[C@H](Cc1c[nH]c2ccccc12)NC(=O)CCCCCNC(=O)CCOCCOCCOCCOC)C(=O)N[C@@H](CCC(=O)O)C(=O)N[C@@H](Cc1c[nH]c2ccccc12)C(=O)N[C@H](C(=O)N[C@@H](CCCCN)C(=O)N[C@H](C(=O)N[C@@H](CCC(N)=O)C(=O)N[C@H](C(=O)N[C@H](C(=O)N[C@@H](CO)C(=O)N[C@@H](CCCCN)C(=O)N[C@@H](CC(C)C)C(=O)N[C@@H](CCCNC(=N)N)C(=O)N[C@@H](CC(C)C)C(N)=O)C1CCCCC1)[C@@H](C)CC)[C@@H](C)CC)[C@@H](C)CC
# Biological target: T1, myostatin
# Assay: cell-based or functional assay
Binder,myostatin inhibitory activity at 1 µM (luciferase reporter assay) [% inhibition],myostatin inhibitory activity at 0.3 µM (luciferase reporter assay) [% inhibition]
{m‑dPEG(4)-Ahx}-LYIEWIKIQIISKLRL-NH2 [PDM-34],≥ 40,
{m‑dPEG(4)-Ahx}-HYIEWIKIQIISKLRL-NH2 [PDM-35],≥ 40,
{m‑dPEG(4)-Ahx}-WFIEWIKIQIISKLRL-NH2 [PDM-37],≥ 40,
B1,≥ 40,
B2,≥ 40,
{m‑dPEG(4)-Ahx}-WLIEWIKIQIISKLRL-NH2 [PDM-40],≥ 40,
{m‑dPEG(4)-Ahx}-WHIEWIKIQIISKLRL-NH2 [PDM-41],≥ 40,
{m‑dPEG(4)-Ahx}-WRIEWIKIQIISKLRL-NH2 [PDM-42],≥ 40,
{m‑dPEG(4)-Ahx}-WSIEWIKIQIISKLRL-NH2 [PDM-43],≥ 40,
B3,≥ 40,
{m‑dPEG(4)-Ahx}-WYIELIKIQIISKLRL-NH2 [PDM-45],≥ 40,
{m‑dPEG(4)-Ahx}-WYIESIKIQIISKLRL-NH2 [PDM-46],≥ 40,
{m‑dPEG(4)-Ahx}-WYIERIKIQIISKLRL-NH2 [PDM-47],≥ 40,
{m‑dPEG(4)-Ahx}-WYIEFIKIQIISKIRL-NH2 [PDM-49],≥ 40,
{m‑dPEG(4)-Ahx}-WYIEYIKIQIISKIRL-NH2 [PDM-50],≥ 40,
{m‑dPEG(4)-Ahx}-WYIEHIKIQIISKIRL-NH2 [PDM-51],≥ 40,
B4,≥ 40,
B5,≥ 40,
{m‑dPEG(4)-Ahx}-WYIEWIKIQIFSKLRL-NH2 [PDM-54],≥ 40,
{m‑dPEG(4)-Ahx}-WYIEWIKIQIWSKLRL-NH2 [PDM-55],≥ 40,≥ 40
{m‑dPEG(4)-Ahx}-WYIEWIKIQIYSKLRL-NH2 [PDM-56],≥ 40,
{m‑dPEG(4)-Ahx}-YYIESIKIQIISKLRL-NH2 [PDM-61],≥ 40,

# Source: patent US20190177370A1 (TOKYO UNIVERSITY OF PHARMACY AND LIFE SCIENCES, published 2019)
